Measurements reported in patent US9982287B2, “Enterokinase cleavable polypeptides” (Novo Nordisk A/S, priority 2013, dated 2018).
No end group written: not given here. *: point of attachment. Dnp = O=[N+]([O-])c1ccc(*)c([N+](=O)[O-])c1; 2Abz = Nc1ccccc1C(=O)O

How the values were obtained:
[1] = target: T1, Enterokinase bovine light chain variant (C112A, L134K, I135K) (Bos taurus, UniProt P98072, C912A/I935K/L934K); experiment: EK-kinetics_2: initial rates of Enterokinase hydrolysis of full length GLP-1 with an N-terminal extension (UPLC); type: biochemical; conditions: Z1 = entire [Arg34]GLP-1(9-37), N-terminal extension Z2; slowest D4K site in this set = 100%; initial substrate 1 mg/ml, pH 8.5
T1 construct: the bovine light chain variant (C112A, L134K, I135K) as described in WO2013/092855A1; made in house
Experimental: Method: EK-kinetics_2 • EK-kinetics_2 was performed by calculating initial rates of hydrolysis of full length GLP-1 with an N-terminal extension. Substrate concentrations were in the range 150-300 μM. The hydrolysis reaction was started by adding an amount of enterokinase giving a final concentration of 9.5 nM. Samples were taken after 6.2 min, 18.7 min, 43.7 min, 86.3 min, 151.3 min, and 243.8 min and quenched by a 1+9 dilution into 5% acetic acid. A suitable method was used on a Waters iClass UPLC to separate and individually quantify remaining substrate and formed product on an analytical reversed-phase column by integrating peak areas. An equation of the following form was fitted to the raw data: […]
wherein t is time, cs0 is initial substrate concentration, cE is enzyme concentration, cPt is product concentration at time t, cSt is substrate concentration at time t, kcat and Km are hydrolysis parameters, and Ki is product inhibition constant. A constant Ki of 0.1 μM was used for all reactions. Initial hydrolysis rates were calculated based on the parameters determined for a initial substrate concentration of 1 mg/ml for all peptides. All reactions were performed in 50 mM Tris buffer, 1 mM EDTA, pH 8.5.
(§1) • The Enterokinase enzymes used for examples herein was the bovine light chain variant (C112A, L134K, I135K) as described in WO2013/092855A1.

[2] = target: T1, Enterokinase bovine light chain variant (C112A, L134K, I135K); experiment: EK-kinetics_1: initial rates of Enterokinase hydrolysis of intramolecularly quenched fluorogenic peptides; type: biochemical; conditions: Z1 = HAEGT, X6 absent; for Activity (%): relative Enterokinase cleavage rate of reference substrates: reference EK-sites, normalised to substrate with D4K site = 100%
Experimental: These peptide substrates have the following general structure: Z2*-X6-X5-X4-GDR-Z1* Formula (II) • wherein • X6-X5-X4 have the same meaning as in formula (I) (each being an amino acid, however X6 being optional), • Z2 is Lys(Dnp) and • Z1* is Z1-Lys(Abz)amide, where Z1 is as defined in formula (I). • SPPS_I was performed on a Multipep RSi synthesizer from Intavis Bioanalytical Instruments AG (Koeln, Germany) at 3-μmol scale in parallel using 2.5 fold excess of Fmoc-amino acids (300 mM in NMP with 300 mM Oxyma Pure®) relative to resin loading e.g. Rinkamide-Chematrix (0.5 mmol/g). Fmoc-deprotection was performed using 20% piperidine in NMP. Coupling was performed using 1:1:1:1 amino acid/Oxyma Pure®/DIC/collidine in NMP. All amino acids were “double or triple coupled”, meaning that after the first coupling (60 min), the resin is drained and more reagents are added (amino acid, Oxyma Pure®, DIC, and collidine), and the mixture allowed to react again (60 min).
Method: EK-Kinetics_1 • EK-kinetics_1 was performed by measuring initial rates of hydrolysis of intramolecularly quenched fluorogenic peptides: Lys(Dnp)-peptide-Lys(Abz)amide according to formula (II). After measuring the background fluorescence of peptides, generally at a substrate concentration in the range of 1 to 50 μM, initial rates of hydrolysis was measured by addition of purified enterokinase enzyme at a concentration enabling reading the initial rate of hydrolysis, i.e. less than 5% hydrolysis in 30 min. Typically an enzyme concentration of 1 to 10 nM may be used. After up to one hour of hydrolysis additional enzyme was added to enable measurement of the fluorescence level at total hydrolysis. Hydrolysis rates were generally measured in 50 mM MOPS buffer, 1 mM EDTA, pH 7.5 at 25° C. using a Perkin Elmer Enspire fluorescence plate reader using 320 nm for excitation and 420 nm for emission.
as §1

T1 sequence (P98072 801-1035 C912A/L934K/I935K): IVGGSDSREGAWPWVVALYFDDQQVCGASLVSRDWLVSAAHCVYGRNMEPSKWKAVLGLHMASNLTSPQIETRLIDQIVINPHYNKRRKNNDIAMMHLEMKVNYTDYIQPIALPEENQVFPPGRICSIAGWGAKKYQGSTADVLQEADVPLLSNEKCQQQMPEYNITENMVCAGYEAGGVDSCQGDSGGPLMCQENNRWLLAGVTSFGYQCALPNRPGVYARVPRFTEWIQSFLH

| Substance | Activity (%): relative Enterokinase cleavage rate of reference substrates [2] [%] | other results |
| --- | --- | --- |
| DVKPGQPLYDEGDR-[Arg34]GLP-1(9-37) (DVKPGQPLYDEGDREGTFTSDVSSYLEGQAAKEFIAWLVRGRG; Enterokinase cleavable polypeptide) [Example 119] |  | Activity (%): relative Enterokinase cleavage rate [1]: 707% |
| Lys(Dnp)-INDDRHAEGT-Lys(Abz)amide (K(Dnp)INDDRHAEGTK(2Abz)-NH2; N-terminus assumed; SMILES CC[C@H](C)[C@H](NC(=O)[C@@H](N)CCCCNc1ccc([N+](=O)[O-])cc1[N+](=O)[O-])C(=O)N[C@@H](CC(N)=O)C(=O)N[C@@H](CC(=O)O)C(=O)N[C@@H](CC(=O)O)C(=O)N[C@@H](CCCNC(=N)N)C(=O)N[C@@H](Cc1c[nH]cn1)C(=O)N[C@@H](C)C(=O)N[C@@H](CCC(=O)O)C(=O)NCC(=O)N[C@H](C(=O)N[C@@H](CCCCNC(=O)c1ccccc1N)C(N)=O)[C@@H](C)O) [Example 112] | 126 |  |
| Lys(Dnp)-AEGDR-HAEGT-Lys(Abz)amide (K(Dnp)AEGDRHAEGTK(2Abz)-NH2; N-terminus assumed; SMILES C[C@H](NC(=O)[C@H](Cc1c[nH]cn1)NC(=O)[C@H](CCCNC(=N)N)NC(=O)[C@H](CC(=O)O)NC(=O)CNC(=O)[C@H](CCC(=O)O)NC(=O)[C@H](C)NC(=O)[C@@H](N)CCCCNc1ccc([N+](=O)[O-])cc1[N+](=O)[O-])C(=O)N[C@@H](CCC(=O)O)C(=O)NCC(=O)N[C@H](C(=O)N[C@@H](CCCCNC(=O)c1ccccc1N)C(N)=O)[C@@H](C)O) [Example 1] |  | Activity (%): relative Enterokinase cleavage rate ([2]; initial rate normalised to substrate with D4K site = 100%): 382% |
| Lys(Dnp)-IMGDRHAEGT-Lys(Abz)amide (K(Dnp)IMGDRHAEGTK(2Abz)-NH2; N-terminus assumed; SMILES CC[C@H](C)[C@H](NC(=O)[C@@H](N)CCCCNc1ccc([N+](=O)[O-])cc1[N+](=O)[O-])C(=O)N[C@@H](CCSC)C(=O)NCC(=O)N[C@@H](CC(=O)O)C(=O)N[C@@H](CCCNC(=N)N)C(=O)N[C@@H](Cc1c[nH]cn1)C(=O)N[C@@H](C)C(=O)N[C@@H](CCC(=O)O)C(=O)NCC(=O)N[C@H](C(=O)N[C@@H](CCCCNC(=O)c1ccccc1N)C(N)=O)[C@@H](C)O) [Example 111] | 125 |  |
